The target in one series is T1, TIAR RRM1 (UniProt Q01085 1-94).
T1 sequence: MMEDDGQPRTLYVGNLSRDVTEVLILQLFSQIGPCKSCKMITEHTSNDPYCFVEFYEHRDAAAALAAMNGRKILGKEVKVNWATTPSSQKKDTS
The experiment in a line: SPR. (In general: SPR reads the build-up and loss of mass on a sensor chip optically.)

For series [1], the target named is T2, TIAR RRM2L (UniProt Q01085 94-181).
T2 sequence: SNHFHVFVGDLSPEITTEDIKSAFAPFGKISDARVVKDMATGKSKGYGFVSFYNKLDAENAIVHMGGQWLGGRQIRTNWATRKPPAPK
The experiment in a line: SPR.

In a further series the target is T3, TIAR RRM12S (UniProt Q01085 8-175).
T3 sequence: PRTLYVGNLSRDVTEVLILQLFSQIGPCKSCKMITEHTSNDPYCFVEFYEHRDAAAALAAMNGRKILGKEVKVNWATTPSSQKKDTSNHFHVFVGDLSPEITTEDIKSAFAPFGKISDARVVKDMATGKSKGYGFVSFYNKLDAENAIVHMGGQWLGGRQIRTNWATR
The series is described as follows: SPR.

Series [2] concerns the target T2, TIAR RRM2L. The series is described as follows: NMR.

B1: U-rich RNA (ssRNA)
RNA: GGGGGGUUUUUUUUUUUUUUUUUGGGGG
As to B1, in the series with TIAR RRM1, the binding result is “no binding”. Also, the Kd in the series with TIAR RRM2L [1] is 200 ± 6 nM.

B2: T-rich DNA (ssDNA)
DNA: TTTTTTTTTTTTTTTTTTTT
Consider B2, for which the Kd is 314 ± 2 nM in the series with TIAR RRM12S and 66 ± 3 nM with TIAR RRM2L [1].

B3: 6-nt AU-rich RNA (ssRNA)
RNA: UUAUUU
For B3, the binding result with TIAR RRM2L [2] is reported as “binds”.

For orientation: Kd means the concentration at which binding is half-saturated.
